Laboratory results taken from PMC3921674 (2014).

What was measured:
[1] = target: WDR5 F266A (isothermal calorimetry) (UniProt P61964 1-334, F266A); test: ITC
[2] = target: WDR5 (wild type, isothermal calorimetry) (UniProt P61964 1-334); test: ITC

Kd [1]	Kd [2]	Binder
0.6 µM	0.97 µM	GSARAEVHLRKSAFDMFNFLASKHRQPPEYNPNDEEEEEVQ [MLL1(3762-3802)]
34.7 µM	31.1 µM	ARTKQTARKS [H3(1-10)]
